Laboratory results: patent US20030049729A1

Biological target: plasminogen
Experiment: cell-based or functional assay

## Bacteriophages which harbored K2S on gpIII (K2S-phi; printed with a garbled symbol as K2S-?) (from UniProt P00750 209-562)
  fibrinogen-dependent enzymatic activity: < 0.25 IU/ml
